From PMC8144435
Several values for one entry are separate records, joined by “and”; a condition that tells them apart may be missing. Equal entries are not always repeated.

Target: Mayaro virus (MAYV) capsid (C) protein, strain IQT4235 (Mayaro virus (strain IQT4235))
Test: cryo-EM structure; purified mature infectious MAYV virions (5x10^10 PFU/mL, from Vero CCL81 cells) vitrified on Quantifoil R2/2 grids; 300 kV Titan Krios, single particle analysis with icosahedral symmetry, global resolution 4.4 Å; atomic model from a homology model on CHIKV (PDB 6NK5) refined into the map

Mayaro virus (MAYV) capsid (C) protein, strain IQT4235 (natural protein)
stoichiometry N: 6 and 5
